From the nanobody polyreactivity screen of Harvey et al. (2022) come the findings set out here.

This data set in a line: yeast display, Sf9 membrane polyspecificity reagent, FACS + sequencing; frameworks hold sequencing errors. The procedure, abridged:
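In a synthetic yeast display library (Saccharomyces cerevisiae BJ5465), nanobody expression was induced with galactose for 36–48 hours. FACS gates were set low and high (top ~1%) using anti-HA fluorescence for expression and streptavidin fluorescence for binding of the Sf9 membrane reagent. Each polyreactivity label is drawn from the gate of origin.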
Consider “QVQLVESGGGLVQAGGSLRLSCAASGSIFYWNAMGWYRQAPGKERELVAAIDYSDGSTYYADSVKGRFTISRDNAKNTVYLQMNSLKPEDTAVYYCAAEWYYDLYDYWGQGTQVTVSS”, for which the “polyreactivity (PSR sort gate)” value is on record as “high polyreactivity”. “QVQLVESGGGLVQAGGSLRLSCAASGSIFYWYAIGWYRQAPGKETELVAAISSGGSTNYADSVKGRFTISRDNAKNTVYLQMNSLKPEDTAVYYCNADIRSFYWEYYTGLDSWGQGTQVTVSS”: the “polyreactivity (PSR sort gate)” value is on record as “low polyreactivity”. Take “QVQLVESGGGLVQAGGSLRLSCAASGSIFYWYALGWYRQAPGKERELVADITTSDGRTYYADSVKGRFTISRDNAKNTVNLQMNSLKPEDTAVYYCAADPFSGYGFQYYRGLYYWGQGTQVSVSS”: the “polyreactivity (PSR sort gate)” value is on record as “low polyreactivity”. Take “QVQLVESGGGLVQAGGSLRLSCAASGSIFYWYAMGWYRQAPGKERELVAAISSGGSTNYADSVKGRFTISRDNAKNTVYLQMNSLKPEDTAVYYCNADIRSFYWEYYTGLDSWGQVTQVTVSS”: the “polyreactivity (PSR sort gate)” value is given as “low polyreactivity”.

Turning to “QVQLVESGGGLVQAGGSLRLSCAASGSIFYWYAMGWYRQAPGKERELVAAITRSAGTTYYADSVKGRITISRDNAKNTVYLQMNSLKPEDTAVYYCAATYPRPYGSRPRYEYWGQGTQVTVSS”, the “polyreactivity (PSR sort gate)” value is reported as “high polyreactivity”.

Regarding “QVQLVESGGGLVQAGGSLRLSCAASGSIFYYNAMGWSRQAPGKERELVAGIRRSGDSTYYADSVKGRFTISRDNAKNTVYLQMNSLKPEDTAVYYCAAYLYLEYYYWGQGTQVTVSS”, the “polyreactivity (PSR sort gate)” value is given as “low polyreactivity”. Take “QVQLVESGGGLVQAGGSLRLSCAASGSIFYYNAMGWYRQAPGKERELVAAISSSGGSTYYADSVKGRFTISRDNAKNTVYLQMNSLKPEDTAVYYCAAKLRHWAHHTKYDYWGQGTQVSVSS”: the “polyreactivity (PSR sort gate)” value is “low polyreactivity”. For “QVQLVESGGGLVQAGGSLRLSCAASGSIFYYNAMGWYRQAPGKERELVAAMSWSGGSTYDADSVKGRFTISRDNAKHTVYLQMNSLKPEDTAVYYCRYYRRDEMDYWGQGTQVTVSS”, the “polyreactivity (PSR sort gate)” value was “high polyreactivity”. On to “QVQLVESGGGLVQAGGSLRLSCAASGSIFYYNAMGWYRQAPGKERELVATITQSGGGRTYYADSVKGRFTISRDNAKNTVYLQMNSLKPEDTAVYYCAAKPDKYKSYRYGYWGQGTQVTVSS”, for which the “polyreactivity (PSR sort gate)” value is reported as “low polyreactivity”.

“QVQLVESGGGLVQAGGSLRLSCAASGSIFYYNAMGWYRQAPGQERELVAGINYSGGSTYYADSVKGRFTISRDNAKNTVYLQMNSLIPEDTADYYCAARPRYLNARKYYYWGLGTQVTVSS”: the “polyreactivity (PSR sort gate)” value is recorded as “high polyreactivity”. Take “QVQLVESGGGLVQAGGSLRLSCAASGSIFYYNTMGWYRQAPGKEREFVADISVIGGSTYYADSVKGRFTISRDNAKNTVYLQMNSLKPEDTAVYYCAARRYLRPHGLYGYWGQGSQVTVSS”: the “polyreactivity (PSR sort gate)” value is given as “low polyreactivity”. In the case of “QVQLVESGGGLVQAGGSLRLSCAASGSIFYYNVMGWYRQAPGKETELVAAISQSGVRTYYADSVKGRFTISRDNAKNTVYLQMNSLKPEDTAVYYCAAKARRLYASSYDYWGQGTQVTVSS”, the “polyreactivity (PSR sort gate)” value is “high polyreactivity”. The same measure for “QVQLVESGGGLVQAGGSLRLSCAASGSIFYYYAAMGWYRQAPGKERELVAAIDSSDGTTYYADSVKGRFTISRDNAKNTVYLQMNSLKPEDTAVYYCAAETVQEFEYWGQGTQVTVSS”: “high polyreactivity”. On to “QVQLVESGGGLVQAGGSLRLSCAASGSIFYYYAMGWSRQAPGKERELVAAITWRGGRTYYADSVKGRFTISRDNAKNTVYLQMNSLKPEDTAVYYCAADSRYYQYIYIHGYDYWGQGTQVTVSS”, for which the “polyreactivity (PSR sort gate)” value was “high polyreactivity”. In the case of “QVQLVESGGGLVQAGGSLRLSCAASGSIFYYYAMGWYRQAPGKEMELVAAIDSGGSTYYAHSVKGRFTISRDNAKNTVYLQMNSLKPEDTAVYYCAADTYWFVYYGYDYWGQGTQVTVSS”, the “polyreactivity (PSR sort gate)” value was “low polyreactivity”. For the sequence “QVQLVESGGGLVQAGGSLRLSCAASGSIFYYYAMGWYRQAPGKEREFVAAIRESGGSTYYADSVKGRFTISRDNAKNTVYLQMNSLKPEDTAVYYCAVRRPRRNYNYPYDYCGQGTQVTVSS”, the “polyreactivity (PSR sort gate)” value is reported as “low polyreactivity”.

Turning to “QVQLVESGGGLVQAGGSLRLSCAASGSIFYYYAMGWYRQAPGKERELVAAISDDAITYYADSVKGRFTISRDNAKNTVYLQMNSLKPEDTAVYYCAAELYYPVGFDYWGQGTQVTVSS”, the “polyreactivity (PSR sort gate)” value is “high polyreactivity”.

For the sequence “QVQLVESGGGLVQAGGSLRLSCAASGSIFYYYAMGWYRQAPGKERELVAAISSGGSTNYADSVKGRFTISRDYAKNTVYLQMNSLKPEDTAVYYCAADYRAQYVVWYTYDYWGQGTQVTVSS”, the “polyreactivity (PSR sort gate)” value is listed as “low polyreactivity”. For the sequence “QVQLVESGGGLVQAGGSLRLSCAASGSIFYYYAMGWYRQAPGKERELVAAITYDAGSTYYADSVKGRFTISRDNAKNTVYLQMNSLKPEDTAVYYCATDGIYHWGVYTPYDYWGQGTQVTVSS”, the “polyreactivity (PSR sort gate)” value was “low polyreactivity”. For “QVQLVESGGGLVQAGGSLRLSCAASGSIFYYYAMGWYRQAPGKERELVASITSGGRTYYADSVKGRFTISRDNAKNTVYFQMNSLKPEDTAVYYCAAVYGGLTLTRNYYWGQGTQVTVSS”, the “polyreactivity (PSR sort gate)” value is reported as “high polyreactivity”. With “QVQLVESGGGLVQAGGSLRLSCAASGSIFYYYGMGWYRQAPGKERELVAGISSRGGRTYYADSVKGRFTISRDNAKNTVYLQMNSLKPEDTAVYYCAADRYYYAYRYYPSGYWGQGTQVTVSS”, the “polyreactivity (PSR sort gate)” value was “low polyreactivity”.

“QVQLVESGGGLVQAGGSLRLSCAASGSIFYYYTMGWDRQAPGKERELVADITYRGGSTYYADSVKGRFTISRDNAKNTVYLLMNSLKPEDTAVNFCAAASLVRGGHFDYWGQGTQVTVSS”: the “polyreactivity (PSR sort gate)” value is listed as “high polyreactivity”. The same measure for “QVQLVESGGGLVQAGGSLRLSCAASGSIFYYYVMGWYRQAPGKERELVAAIRSSGTSTYYADSVKGRFTISRDNAKNTVYLQMNSLKPEDTAVYYCNRARSSSRYDYWGQGTQVTVSS”: “low polyreactivity”. The same measure for “QVQLVESGGGLVQAGGSLRLSCAASGSIFYYYVMGWYRQAPGKERELVAAITYSGGRTYYADSVKGRFTISRDNAKYTVYLQMNSLKPEDTAVYYCNVVIYYFNSRSVFYDYDYWGQGTQVTVSS”: “high polyreactivity”; for “QVQLVESGGGLVQAGGSLRLSCAASGSIIDWNAMGWYRQAPGKERELVAVISWGGGSTYADSVKGRFTISRDNAKNTVYLQMNSLKPEDTAVYNCNKEPIYYPVSDYDYWGQGTQVTVSS”: “low polyreactivity”; for “QVQLVESGGGLVQAGGSLRLSCAASGSIIGIYALGWYRQAPGKERELVAAISWSGGSTYYADSVKGRFTISRDNAKNTVYLQMNSLKPEDTAVYYCAARGHYQYYWGQGTQVTVSS”: “low polyreactivity”. On to “QVQLVESGGGLVQAGGSLRLSCAASGSIIGLYVMGWYRQAPGKERELVAAISWSGGSTYYADSVKGRFTISRDNAKNTVYLQMNSLKPEDTAVYYCAARVYSVADYYYWGQGTQVTVSS”, for which the “polyreactivity (PSR sort gate)” value is given as “low polyreactivity”. In the case of “QVQLVESGGGLVQAGGSLRLSCAASGSIIGRNAMGWYRQAPGKERELVAAISTRGGRTYYADSVKGRFTISRDNAKNTVYLQMNSLKPEDTAVYYCAATYQYLKSGYYWGQGTQVTVSS” it was “high polyreactivity”; in that of “QVQLVESGGGLVQAGGSLRLSCAASGSIIGYYAMGWYRQARGKERELVAAISSSGASTYYADSVKGRFTISRDNAKYTVYLQMNSLKPEDTAVYYCNAARRYPTRGGYWGQGTQVTVSS”, “high polyreactivity”; in that of “QVQLVESGGGLVQAGGSLRLSCAASGSIIHDNAMGWYRQAPGKERELVAAINRGGSTHYADSVKGRFTISRDNAKNTVYLQMNSLKPEDTAVYYCAADGIRPEVGYWGQGTQVTVSS”, “low polyreactivity”.
